Experiment [1] concerns the target T1, human sortilin (R&D Systems, 3154-ST) (human, UniProt Q99523 78-755).
T1 construct: sortilin, human, recombinant protein bought from R&D Systems (3154-ST); also called hSort; SORT1; source: bought: R&D Systems (3154-ST)
T1 sequence (looked up): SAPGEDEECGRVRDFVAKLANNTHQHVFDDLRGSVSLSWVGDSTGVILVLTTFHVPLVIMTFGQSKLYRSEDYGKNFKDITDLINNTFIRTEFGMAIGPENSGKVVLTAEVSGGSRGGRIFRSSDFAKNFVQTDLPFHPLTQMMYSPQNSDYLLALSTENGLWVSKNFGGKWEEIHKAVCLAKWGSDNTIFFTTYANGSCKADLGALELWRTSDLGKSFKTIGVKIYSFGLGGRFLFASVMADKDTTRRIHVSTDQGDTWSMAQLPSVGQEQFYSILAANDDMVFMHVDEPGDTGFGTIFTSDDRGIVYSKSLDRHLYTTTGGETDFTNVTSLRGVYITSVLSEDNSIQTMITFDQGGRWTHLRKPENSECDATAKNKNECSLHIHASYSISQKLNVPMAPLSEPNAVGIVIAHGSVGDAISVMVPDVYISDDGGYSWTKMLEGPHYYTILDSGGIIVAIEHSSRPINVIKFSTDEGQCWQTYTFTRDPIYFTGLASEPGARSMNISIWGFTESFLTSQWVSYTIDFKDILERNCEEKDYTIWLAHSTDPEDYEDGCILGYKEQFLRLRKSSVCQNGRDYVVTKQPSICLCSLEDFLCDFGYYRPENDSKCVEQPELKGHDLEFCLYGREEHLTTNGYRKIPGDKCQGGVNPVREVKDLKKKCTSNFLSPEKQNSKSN
The experiment in a line: SPR; Biacore 8K, affinity determination of second-generation constructs; 30-100 RU of ABD035-containing constructs captured on immobilised HSA (CM5); 1-200 nM human sortilin injected 180 s at 30 µl/min, 25°C, PBST; 60 min dissociation; 1:1 Langmuir fit; apparent constants; n=3 technical replicates. As to conditions: both partners purified.

Experiment [2] concerns the target T2, sortilin on the surface of U-251 and PC-3 cells (human (endogenous in U-251 and PC-3), UniProt Q99523 78-831).
T2 sequence (looked up): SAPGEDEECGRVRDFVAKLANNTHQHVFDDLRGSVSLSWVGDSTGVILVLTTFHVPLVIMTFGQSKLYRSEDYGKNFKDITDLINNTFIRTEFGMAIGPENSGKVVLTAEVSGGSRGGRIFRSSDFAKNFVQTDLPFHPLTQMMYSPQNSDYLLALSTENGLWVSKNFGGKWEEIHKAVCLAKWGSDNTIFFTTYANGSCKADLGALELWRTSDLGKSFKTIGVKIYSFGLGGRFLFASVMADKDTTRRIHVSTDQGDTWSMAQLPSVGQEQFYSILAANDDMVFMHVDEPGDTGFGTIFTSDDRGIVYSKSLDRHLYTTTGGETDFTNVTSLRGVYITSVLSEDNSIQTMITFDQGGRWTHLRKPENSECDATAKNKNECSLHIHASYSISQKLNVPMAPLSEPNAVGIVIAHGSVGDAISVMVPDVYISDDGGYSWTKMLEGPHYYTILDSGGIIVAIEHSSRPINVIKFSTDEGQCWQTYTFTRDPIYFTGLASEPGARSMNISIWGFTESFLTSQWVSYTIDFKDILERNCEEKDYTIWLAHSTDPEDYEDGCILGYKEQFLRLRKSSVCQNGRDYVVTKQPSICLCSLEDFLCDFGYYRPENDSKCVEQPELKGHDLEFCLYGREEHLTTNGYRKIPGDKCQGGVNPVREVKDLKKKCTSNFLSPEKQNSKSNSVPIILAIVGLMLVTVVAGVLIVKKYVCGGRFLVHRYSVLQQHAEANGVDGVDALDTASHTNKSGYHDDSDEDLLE
The experiment in a line: cell-based or functional assay.

B1: ABD-PGRNC21* (His6-ABD035-PGRNC21*) (peptide, UniProt P28799 573-593, looked up)
chain: LRREAPRWDAPLRDPGLRQLL
notes: progranulin (PGRN), human, the 21 C-terminal residues L573-L593 (PGRNC21) with A588G (PGRNC21*); numbers count from the start codon; also called the PGRN C-terminus; PGRNC alone; source: E. coli BL21 Star, purified (IMAC, HisPur Cobalt); not shown: ABD035, N-terminal, kept
In the case of B1, in experiment [1], the Kd was 15.9 nM, the koff was 0.00337 s⁻¹ and the kon is 212000 M⁻¹ s⁻¹. The “PGRN clearance assay: fold increase of extracellular PGRN (ELISA) against untreated U-251 cells after 72 h, at the highest tested concentration (500 nM); no plateau, no EC50” value in experiment [2] is not above 1.44 fold.

(Values after publication PMC11342335, “An anti-sortilin affibody-peptide fusion inhibits sortilin-mediated progranulin degradation” (Frontiers in Immunology, 2024).)
